Test results as given in patent US20250000946A1 (WUXI BIOLOGICS IRELAND, published 2025).
Like-named read-outs stand apart in the source and are kept apart here.

B1: W3XX115-T3U0.E44-1.uIgG4V1 (Fc fusion)
chain: APTSSSTKKTQLQLEHLLLDLQMILNGINNYKNPKLTRMLTAKFAMPKKATELKHLQCLEEELKPLEEVLNGAQSKNFHLRPRDLISNINVIVLELKGSETTFMCEYADETATIVEFLNRWITFCQSIISTLTESKYGPPCPPCPAPEFLGGPSVFLFPPKPKDTLMISRTPEVTCVVVDVSQEDPEVQFNWYVDGVEVHNAKTKPREEQFNSTYRVVSVLTVLHQDWLNGKEYKCKVSNKGLPSSIEKTISKAKGQPREPQVYTLPPCQEEMTKNQVSLWCLVKGFYPSDIAVEWESNGQPENNYKTTPPVLDSDGSFFLYSRLTVDKSRWQEGNVFSCSVMHEALHNHYTQKSLSLSLG
heavy: EIQLQQSGPELVKPGASVKVSCKASGYSFTDYNMYWVKQSHGESLEWIGYIDPYNGGTRYNQKFKGKATLTVDKSSSTAFMHLNSLTSEDSAVYYCARNGHWDGAWFAYWGQGTLVTVSAASTKGPSVFPLAPCSRSTSESTAALGCLVKDYFPEPVTVSWNSGALTSGVHTFPAVLQSSGLYSLSSVVTVPSSSLGTKTYTCNVDHKPSNTKVDKRVESKYGPPCPPCPAPEFLGGPSVFLFPPKPKDTLMISRTPEVTCVVVDVSQEDPEVQFNWYVDGVEVHNAKTKPREEQFNSTYRVVSVLTVLHQDWLNGKEYKCKVSNKGLPSSIEKTISKAKGQPREPQVCTLPPSQEEMTKNQVSLSCAVKGFYPSDIAVEWESNGQPENNYKTTPPVLDSDGSFFLVSRLTVDKSRWQEGNVFSCSVMHEALHNHYTQKSLSLSLG
light: DIQMNQSPSSLSASLGDTITITCHASQNINVWLSWYQQKPGNIPKLLIYKASNLHTGVPSRFSGSRSGTGFTLTISSLQPEDIATYYCHQGQSYPFTFGSGTKLEIKRTVAAPSVFIFPPSDEQLKSGTASVVCLLNNFYPREAKVQWKVDNALQSGNSQESVTEQDSKDSTYSLSSTLTLSKADYEKHKVYACEVTHQGLSSPVTKSFNRGEC
notes: E44 format, IgG4
B2: W3XX115-T2U0.E44-20.uIgG4V1 (Fc fusion)
chain: APTSSSTKKTQLQLEHLLLDLQMILNGINNYKNPKLTWMLTFKFYMPKKATELKHLQCLEEELKPLEEVLNLAQSKNFHLRPRDLISNINVIVLELKGSETTFMCEYADETATIVEFLNRWITFCQSIIESKYGPPCPPCPAPEFLGGPSVFLFPPKPKDTLMISRTPEVTCVVVDVSQEDPEVQFNWYVDGVEVHNAKTKPREEQFNSTYRVVSVLTVLHQDWLNGKEYKCKVSNKGLPSSIEKTISKAKGQPREPQVYTLPPCQEEMTKNQVSLWCLVKGFYPSDIAVEWESNGQPENNYKTTPPVLDSDGSFFLYSRLTVDKSRWQEGNVFSCSVMHEALHNHYTQKSLSLSLG
heavy: B1 heavy
light: B1 light
notes: IL-2 del STLT and R38W; E44 format, IgG4
B3: W3XX115-hPro1.ECD.His, IL2Rα ECD (receptor)
chain: ELCDDDPPEIPHATFKAMAYKEGTMLNCECKRGFRRIKSGSLYMLCTGNSSHSSWDNQCQCTSSATRNTTKQVTPQPEEQKERKTTEMQSPMQPVDQASLPGHCREPPPWENEATERIYHFVVGQMVYYQCVQGYRALHRGPAESVCKMTHGKTRWTQPQLICTGEMETSQFPGEEKPQASPEGRPESETSCHHHHHH
notes: Entry includes the C-terminal 6xHis tag; also called CD25
B4: W369-hPro2.ECD.His, IL2Rβ ECD (receptor)
chain: AVNGTSQFTCFYNSRANISCVWSQDGALQDTSCQVHAWPDRRRWNQTCELLPVSQASWACNLILGAPDSQKLTTVDIVTLRVLCREGVRWRVMAIQDFKPFENLRLMAPISLQVVHVETHRCNISWEISQASHYFERHLEFEARTLSPGHTWEEAPLLTLKQKQEWICLETLTPDTQYEFQVRVKPLQGEFTTWSPWSQPLAFRTKPAALGKDLEGGGGSGGGGHHHHHH
notes: Entry includes linker and C-terminal 6xHis tag; also called CD122
B5: W369-hPro1.ECD.His, IL-2Rγ ECD (receptor)
chain: LNTTILTPNGNEDTTADFFLTTMPTDSLSVSTLPLPEVQCFVFNVEYMNCTWNSSSEPQPTNLTLHYWYKNSDNDKVQKCSHYLFSEEITSGCQLQKKEIHLYQTFVVQLQDPREPRRQATQMLKLQNLVIPWAPENLTLHKLSESQLELNWNNRFLNHCLEHLVQYRTDWDHSWTEQSVDYRHKFSLPSVDGQKRYTFRVRSRFNPLCGSAQHWSEWSHPIHWGSNTSKENLEGGGGSGGGGHHHHHH
notes: Entry includes linker and C-terminal 6xHis tag; also called IL-2Rγc; CD132

Tests used:
[1] = target: T1, Human IL-2Rα/β/γ complex (high affinity IL-2 receptor) (human, UniProt P01589 22-272; P14784 27-551; P31785 23-369); assay: FACS, NK92 cells; EC50 fold vs T2U0.E44-1
T1 construct: whole, on cells
T1 sequence (looked up) 1: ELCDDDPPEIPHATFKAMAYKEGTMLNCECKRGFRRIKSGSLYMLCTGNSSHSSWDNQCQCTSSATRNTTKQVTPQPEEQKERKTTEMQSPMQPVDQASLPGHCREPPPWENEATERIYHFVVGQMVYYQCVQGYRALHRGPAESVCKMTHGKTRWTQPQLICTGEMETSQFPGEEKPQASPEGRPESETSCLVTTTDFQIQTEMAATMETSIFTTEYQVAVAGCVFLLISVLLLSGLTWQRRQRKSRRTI
T1 sequence (looked up) 2: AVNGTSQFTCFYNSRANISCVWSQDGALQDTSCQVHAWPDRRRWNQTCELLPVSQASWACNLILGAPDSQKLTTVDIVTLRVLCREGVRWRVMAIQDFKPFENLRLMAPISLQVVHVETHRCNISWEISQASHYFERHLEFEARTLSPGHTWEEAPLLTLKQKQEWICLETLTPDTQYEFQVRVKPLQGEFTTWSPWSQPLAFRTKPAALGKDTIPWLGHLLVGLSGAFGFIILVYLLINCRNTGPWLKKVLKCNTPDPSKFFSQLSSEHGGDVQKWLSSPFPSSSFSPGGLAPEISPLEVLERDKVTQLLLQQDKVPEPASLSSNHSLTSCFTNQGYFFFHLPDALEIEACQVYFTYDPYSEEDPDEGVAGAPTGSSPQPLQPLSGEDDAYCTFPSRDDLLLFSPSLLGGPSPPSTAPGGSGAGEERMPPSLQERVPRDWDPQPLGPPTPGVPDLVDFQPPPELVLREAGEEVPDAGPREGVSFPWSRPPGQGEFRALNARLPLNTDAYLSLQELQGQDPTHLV
T1 sequence (looked up) 3: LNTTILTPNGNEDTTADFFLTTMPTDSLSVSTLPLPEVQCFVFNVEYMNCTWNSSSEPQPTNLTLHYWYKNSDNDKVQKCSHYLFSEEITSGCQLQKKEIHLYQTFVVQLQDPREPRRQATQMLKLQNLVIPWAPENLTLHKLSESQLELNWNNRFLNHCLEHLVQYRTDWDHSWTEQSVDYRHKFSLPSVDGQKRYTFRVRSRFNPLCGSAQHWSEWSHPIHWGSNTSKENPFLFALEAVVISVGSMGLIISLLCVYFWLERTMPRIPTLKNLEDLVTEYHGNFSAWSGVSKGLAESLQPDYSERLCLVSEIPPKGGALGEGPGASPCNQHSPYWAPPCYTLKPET
Summary of the method: (§1)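 Cultured HH, NK92 and MJ20 cells are exposed to IL-2/Fc fusion proteins for 30 min at 4° C. Bound fusion protein is then stained with PE-anti-human Fc, again 30 min at 4° C. Flow cytometry gives the MFI.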

[2] = target: T2, Human IL-2Rβ/γ (intermediate affinity IL-2 receptor) (human, UniProt P14784 27-551; P31785 23-369); assay: FACS, HH cells; EC50 fold vs T2U0.E44-1
T2 construct: whole, on cells; also called IL-2Rβ/γc; IL-2Rβ (CD122) and γ (CD132)
T2 sequence (looked up) 1: T1 sequence (looked up) 2
T2 sequence (looked up) 2: T1 sequence (looked up) 3
Experimental: (§2) Human cutaneous T cell lymphoma HH cells, malignant non-Hodgkin's lymphoma NK92 cells and cutaneous T cell lymphoma MJ20 cells were used for binding assay. They both constitutively express IL-2Rβ (CD122) and […] (CD132), and NK92 and MJ20 also expresses IL-2Rα (CD25). HH, NK92 and MJ20 cells were cultured following ATCC guidance, then transferred to a 96-plate for binding analysis. Cells were incubated with IL-2/Fc fusion proteins at the indicated concentrations for 30 min at 4° C. to avoid internalization. Binding was detected by 2nd antibody of PE-anti-human Fc at 4° C. for another 30 min. The median fluorescence intensity (MFI) on HH and NK92 cells was measured using FACS.

[3] = target: T2, Human IL-2Rβ/γ (intermediate affinity …); assay: cell-based or functional assay
[4] = target: T1, Human IL-2Rα/β/γ complex (high affinity …); assay: cell-based or functional assay
[5] = target: T2, Human IL-2Rβ/γ (intermediate affinity …); assay: FACS, HH cells
Summary of the method: as §1

[6] = target: T1, Human IL-2Rα/β/γ complex (high affinity …); assay: FACS, NK92 cells
Summary of the method: as §1

[7] = target: T2, Human IL-2Rβ/γ (intermediate affinity …); assay: FACS, HH cells; EC50 fold vs T2U0.E44-1; remark: listed apart in the source
Summary of the method: as §1

[8] = target: T2, Human IL-2Rβ/γ (intermediate affinity …); assay: cell-based or functional assay; remark: listed apart in the source
[9] = target: T1, Human IL-2Rα/β/γ complex (high affinity …); assay: cell-based or functional assay; remark: listed apart in the source
[10] = target: T2, Human IL-2Rβ/γ (intermediate affinity …); assay: FACS, HH cells; remark: listed apart in the source
Experimental: as §2

[11] = target: T3, W3XX115-T2U0.E44-6.uIgG4V322 (human, UniProt P60568 21-149); assay: SPR Biacore 8K; variant captured via anti-human Fc, IL-2Rα ECD-His injected; steady state
T3 construct: IL-2 del STLT; E44 format, IgG4 FALA; IL-2 part tied by the design 'Del STLT'; not shown: IgG4 hinge-Fc with FALA (uIgG4V322), no linker
Experimental: IL-2 variants binding affinity to IL-2 receptor were detected by SPR using Biacore 8K. For IL-2Rα binding assay, each variant was captured on anti-human Fc immobilized CM5 sensor chip (cytiva). W3XX115-hPro1.ECD.His at different concentrations were injected over the sensor chip at a flow rate of 30 uL/min for an association phase of 60 s, followed by 90 s dissociation. The chip was then regenerated by 10 mM Glycine-HCl pH1.5 after each binding cycle. For IL-2Rγ binding assay, IL-2 variants were mixed with W369-hPro2.ECD.His as 1:1 before assay, were detected by SPR using Biacore 8K. W3XX115-hPro1.ECD.His was captured on anti-His immobilized CM5 sensor chip (cytiva). The mixture were injected over the sensor chip as described above. The sensorgrams of blank surface and buffer channel were subtracted from the test sensorgrams. The experimental data was fitted by steady state affinity model. Molecular weight of W3XX115-hPro1.ECD.His or W369-hPro1.ECD.His was used to calculate the molar concentration of analyte.
For T3U0.E44-1 and T2U0.E44-33, no binding to IL-2Rα was detected.

[12] = target: T3, W3XX115-T2U0.E44-6.uIgG4V322; assay: SPR Biacore 8K; set-up for IL-2Rβ not described
[13] = target: T3, W3XX115-T2U0.E44-6.uIgG4V322; assay: SPR (Biacore 8K): variant pre-mixed 1:1 with human IL-2Rβ ECD (W369-hPro2.ECD.His), injected over immobilised human IL-2Rγc [panel 2 of the upper row]

Binder | Affinity reduction [1] | Affinity reduction [2] | Human CD8+ T Potency EC50 (STAT5 phosphorylation) [3] | Human CD8+ T Potency reduction [3] | Human Treg Potency EC50 (STAT5 phosphorylation) [4] | Human Treg Potency reduction [4] | EC50 [6] | EC50 [10] | also measured
B1 | 20.7 fold | 1 fold | 7.14 nM | 0.69 fold | 3.52 nM | 296 fold | 145 nM | 24.5 nM | EC50 [5]: 72.9 nM; Affinity reduction [7]: 1 fold; Potency in human CD8+ T EC50 [8]: 7.53 nM; Potency reduction (CD8+ T) [8]: 0.74 fold; Potency in human Treg EC50 [9]: 2.48 nM; Potency reduction (Treg) [9]: 652 fold
B2 | 33.1 fold | 13.5 fold | 323 nM | 31.4 fold | 2.06 nM | 173 fold | 232 nM | 336 nM | –
B3 | – | – | – | – | – | – | – | – | Kd [11]: 98.2 nM
B4 | – | – | – | – | – | – | – | – | Kd [12]: 1010 nM
B5 | – | – | – | – | – | – | – | – | binding result [13]: binds
